Source: PMC9352680, “A comprehensive thermodynamic model for RNA binding by the Saccharomyces cerevisiae Pumilio protein PUF4”

T1: PUF4 RNA-binding domain (Saccharomyces cerevisiae, UniProt P25339 537-888)
T1 sequence: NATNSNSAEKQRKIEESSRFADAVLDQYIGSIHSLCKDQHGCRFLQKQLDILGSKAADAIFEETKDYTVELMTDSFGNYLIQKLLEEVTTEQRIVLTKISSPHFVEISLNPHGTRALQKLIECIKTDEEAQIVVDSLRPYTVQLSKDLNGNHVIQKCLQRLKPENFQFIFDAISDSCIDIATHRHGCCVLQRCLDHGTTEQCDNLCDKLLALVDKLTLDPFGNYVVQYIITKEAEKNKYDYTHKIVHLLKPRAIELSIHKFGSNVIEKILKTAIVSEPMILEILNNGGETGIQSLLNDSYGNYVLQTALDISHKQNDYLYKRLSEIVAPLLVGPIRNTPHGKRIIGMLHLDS


Target: T1, PUF4 RNA-binding domain
Assay: Mg; RNA-MaP; 20 mM Na-HEPES pH 7.4, 30 mM KOAc, 0.75 mM MgCl2, 0.1% Tween-20, 5% glycerol, 0.1 mg/mL BSA, 2 mM DTT; 25 C; 0.0125-409.6 nM protein
Conditions: tags: N-His6-TEV cleaved; C-SNAP kept, Cy3B-labelled; label: tethered on chip by stalled RNA polymerase

Binder | Kd [nM]
Ic_S4_P3E.1_K3.1_C3.1_H3.1_A3.1_F3.1_[A8T]_T3.1 (ssRNA) RNA: UUUGACAACUGAUCGUUCUUUCUUGUAUAUUUUCUUUCUCGAUCAGUUGUCUUU | 3.03
Ic_S4_P3E.1_K3.1_C3.1_H3.1_A3.1_[T5A]_[A6T]_F3.1_[T7A]_[A8G]_T3.1 (ssRNA) RNA: UUUGACAACUGAUCGUUCUUUCUUGUAAUAGUUCUUUCUCGAUCAGUUGUCUUU | 1240
Ic_S4_P3E.1_K3.1_C3.1_H3.1_A3.1_[A6T]_F3.1_T3.1 (ssRNA) RNA: UUUGACAACUGAUCGUUCUUUCUUGUAUUUAUUCUUUCUCGAUCAGUUGUCUUU | 15.3
Ic_S4_P3E.1_K3.1_C3.1_H3.1_A3.1_[A6T]_F3.1_[T7A]_[A8G]_T3.1 (ssRNA) RNA: UUUGACAACUGAUCGUUCUUUCUUGUAUUAGUUCUUUCUCGAUCAGUUGUCUUU | 944
Ic_S4_P3E.1_K3.1_C3.1_H3.1_A3.1_[T5A]_[A6C]_F3.1_[A8C]_T3.1 (ssRNA) RNA: UUUGACAACUGAUCGUUCUUUCUUGUAACUCUUCUUUCUCGAUCAGUUGUCUUU | 78.8
Ic_S4_P3E.1_K3.1_C3.1_H3.1_A3.1_[A6T]_F3.1_[T7A]_[A8C]_T3.1 (ssRNA) RNA: UUUGACAACUGAUCGUUCUUUCUUGUAUUACUUCUUUCUCGAUCAGUUGUCUUU | 123
Ic_S4_P3E.1_K3.1_C3.1_H3.1_A3.1_[A6C]_F3.1_[T7C]_[A8G]_T3.1 (ssRNA) RNA: UUUGACAACUGAUCGUUCUUUCUUGUAUCCGUUCUUUCUCGAUCAGUUGUCUUU | 392
Ic_S4_P3E.1_K3.1_C3.1_H3.1_A3.1_[A6C]_F3.1_[T7A]_[A8C]_T3.1 (ssRNA) RNA: UUUGACAACUGAUCGUUCUUUCUUGUAUCACUUCUUUCUCGAUCAGUUGUCUUU | 80.4
Ic_S4_P3E.1_K3.1_C3.1_H3.1_A3.1_[A6C]_F3.1_[T7G]_[A8G]_T3.1 (ssRNA) RNA: UUUGACAACUGAUCGUUCUUUCUUGUAUCGGUUCUUUCUCGAUCAGUUGUCUUU | 1930
If_S4_P3E.1_K3.1_C3.1_H3.1_A3.1_F3.1_T3.1 (ssRNA) RNA: UUUGACAACUGAUCGUUCUUUCUUGUAUAUAUUCUUUCUCGAUCAGUUGUCUUU | 1.99
Ic_S4_P3E.1_K3.1_C3.1_H3.1_A3.1_[T5A]_[A6C]_F3.1_[A8T]_T3.1 (ssRNA) RNA: UUUGACAACUGAUCGUUCUUUCUUGUAACUUUUCUUUCUCGAUCAGUUGUCUUU | 21.6
Ic_S4_P3E.1_K3.1_C3.1_H3.1_A3.1_[T5A]_[A6T]_F3.1_[A8G]_T3.1 (ssRNA) RNA: UUUGACAACUGAUCGUUCUUUCUUGUAAUUGUUCUUUCUCGAUCAGUUGUCUUU | 220
Ic_S4_P3E.1_K3.1_C3.1_H3.1_A3.1_[T5A]_[A6C]_F3.1_[T7A]_[A8T]_T3.1 (ssRNA) RNA: UUUGACAACUGAUCGUUCUUUCUUGUAACAUUUCUUUCUCGAUCAGUUGUCUUU | 15.1
Ic_S4_P3E.1_K3.1_C3.1_H3.1_A3.1_[A6T]_F3.1_[A8G]_T3.1 (ssRNA) RNA: UUUGACAACUGAUCGUUCUUUCUUGUAUUUGUUCUUUCUCGAUCAGUUGUCUUU | 46.7
Ic_S4_P3E.1_K3.1_C3.1_H3.1_A3.1_[A6G]_F3.1_T3.1 (ssRNA) RNA: UUUGACAACUGAUCGUUCUUUCUUGUAUGUAUUCUUUCUCGAUCAGUUGUCUUU | 27.4
Ic_S4_P3E.1_K3.1_C3.1_H3.1_A3.1_[T5A]_[A6T]_F3.1_[T7A]_T3.1 (ssRNA) RNA: UUUGACAACUGAUCGUUCUUUCUUGUAAUAAUUCUUUCUCGAUCAGUUGUCUUU | 126
Ic_S4_P3E.1_K3.1_C3.1_H3.1_A3.1_[A6C]_F3.1_[T7C]_[A8T]_T3.1 (ssRNA) RNA: UUUGACAACUGAUCGUUCUUUCUUGUAUCCUUUCUUUCUCGAUCAGUUGUCUUU | 27.6
Ic_S4_P3E.1_K3.1_C3.1_H3.1_A3.1_[A6T]_F3.1_[T7G]_[A8G]_T3.1 (ssRNA) RNA: UUUGACAACUGAUCGUUCUUUCUUGUAUUGGUUCUUUCUCGAUCAGUUGUCUUU | 2130
Ic_S4_P3E.1_K3.1_C3.1_H3.1_A3.1_[A6C]_F3.1_[T7G]_[A8T]_T3.1 (ssRNA) RNA: UUUGACAACUGAUCGUUCUUUCUUGUAUCGUUUCUUUCUCGAUCAGUUGUCUUU | 178
Ic_S4_P3E.1_K3.1_C3.1_H3.1_A3.1_[A6G]_F3.1_[T7C]_[A8T]_T3.1 (ssRNA) RNA: UUUGACAACUGAUCGUUCUUUCUUGUAUGCUUUCUUUCUCGAUCAGUUGUCUUU | 54.5
Ic_S4_P3E.1_K3.1_C3.1_H3.1_A3.1_[T5A]_[A6T]_F3.1_[T7A]_[A8C]_T3.1 (ssRNA) RNA: UUUGACAACUGAUCGUUCUUUCUUGUAAUACUUCUUUCUCGAUCAGUUGUCUUU | 226
Ic_S4_P3E.1_K3.1_C3.1_H3.1_A3.1_F3.1_[T7G]_[A8T]_T3.1 (ssRNA) RNA: UUUGACAACUGAUCGUUCUUUCUUGUAUAGUUUCUUUCUCGAUCAGUUGUCUUU | 23.1
Ic_S4_P3E.1_K3.1_C3.1_H3.1_A3.1_[A6C]_F3.1_[T7A]_[A8T]_T3.1 (ssRNA) RNA: UUUGACAACUGAUCGUUCUUUCUUGUAUCAUUUCUUUCUCGAUCAGUUGUCUUU | 8.55
Ic_S4_P3E.1_K3.1_C3.1_H3.1_A3.1_[T5A]_[A6T]_F3.1_[T7C]_[A8T]_T3.1 (ssRNA) RNA: UUUGACAACUGAUCGUUCUUUCUUGUAAUCUUUCUUUCUCGAUCAGUUGUCUUU | 18.3
Ic_S4_P3E.1_K3.1_C3.1_H3.1_A3.1_[T5A]_[A6T]_F3.1_T3.1 (ssRNA) RNA: UUUGACAACUGAUCGUUCUUUCUUGUAAUUAUUCUUUCUCGAUCAGUUGUCUUU | 65.6
